Assay results: patent publication US20220064331A1 (Genentech, published 2022)
Blank lines part the entries; values can stand above or below the binder they belong to.

Assays:
mouse KLB = target: T1, mouse KLB (mouse, UniProt Q99N32 53-990); assay: FACS on transfected HEK293T cells
T1 construct: expressed from KLB cDNA on HEK293T cells and read by FACS; also called msKLB
T1 sequence: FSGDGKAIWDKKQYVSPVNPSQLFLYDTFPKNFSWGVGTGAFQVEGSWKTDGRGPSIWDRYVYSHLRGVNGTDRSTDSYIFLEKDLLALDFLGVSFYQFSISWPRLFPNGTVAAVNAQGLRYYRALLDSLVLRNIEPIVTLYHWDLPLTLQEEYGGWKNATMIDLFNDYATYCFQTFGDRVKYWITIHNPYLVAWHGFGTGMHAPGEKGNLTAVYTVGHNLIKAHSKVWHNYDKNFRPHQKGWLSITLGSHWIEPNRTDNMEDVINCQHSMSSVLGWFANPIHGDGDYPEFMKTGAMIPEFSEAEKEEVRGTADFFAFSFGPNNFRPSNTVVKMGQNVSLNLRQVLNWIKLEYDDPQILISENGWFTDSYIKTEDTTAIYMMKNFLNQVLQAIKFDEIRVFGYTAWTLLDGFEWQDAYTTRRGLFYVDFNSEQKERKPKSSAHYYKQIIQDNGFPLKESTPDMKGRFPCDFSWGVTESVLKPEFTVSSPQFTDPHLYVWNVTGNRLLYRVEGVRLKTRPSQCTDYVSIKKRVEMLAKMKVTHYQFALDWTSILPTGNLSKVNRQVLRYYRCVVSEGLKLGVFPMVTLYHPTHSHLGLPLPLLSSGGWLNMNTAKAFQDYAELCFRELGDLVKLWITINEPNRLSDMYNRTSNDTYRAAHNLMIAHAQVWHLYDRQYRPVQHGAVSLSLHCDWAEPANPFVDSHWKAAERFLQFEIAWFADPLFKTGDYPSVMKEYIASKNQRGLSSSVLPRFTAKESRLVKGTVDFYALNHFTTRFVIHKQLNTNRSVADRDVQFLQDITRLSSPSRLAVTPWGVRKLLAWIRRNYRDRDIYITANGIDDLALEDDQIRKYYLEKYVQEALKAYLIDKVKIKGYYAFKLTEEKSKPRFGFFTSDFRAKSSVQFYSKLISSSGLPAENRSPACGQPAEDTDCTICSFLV
Protocol: (§1) Species cross reactivity of the disclosed anti-KLB antibodies were analyzed by FACS analysis using KLB cDNA from mouse, rat, rabbit, cynomolgus monkey and rhesus monkey cloned into pRK mammalian expression vectors transiently transfected into HEK293T cells. The KLB extracellular domain polypeptide sequences that were expressed are as follows: […]

[1] = target: T2, cynomolgus monkey KLB (+N-ter FLAG) (cynomolgus monkey, UniProt Q86Z14 53-991 (human entry)); assay: FACS on transfected HEK293T cells
T2 construct: expressed from KLB cDNA on HEK293T cells and read by FACS; also called Cyno KLB
T2 chain: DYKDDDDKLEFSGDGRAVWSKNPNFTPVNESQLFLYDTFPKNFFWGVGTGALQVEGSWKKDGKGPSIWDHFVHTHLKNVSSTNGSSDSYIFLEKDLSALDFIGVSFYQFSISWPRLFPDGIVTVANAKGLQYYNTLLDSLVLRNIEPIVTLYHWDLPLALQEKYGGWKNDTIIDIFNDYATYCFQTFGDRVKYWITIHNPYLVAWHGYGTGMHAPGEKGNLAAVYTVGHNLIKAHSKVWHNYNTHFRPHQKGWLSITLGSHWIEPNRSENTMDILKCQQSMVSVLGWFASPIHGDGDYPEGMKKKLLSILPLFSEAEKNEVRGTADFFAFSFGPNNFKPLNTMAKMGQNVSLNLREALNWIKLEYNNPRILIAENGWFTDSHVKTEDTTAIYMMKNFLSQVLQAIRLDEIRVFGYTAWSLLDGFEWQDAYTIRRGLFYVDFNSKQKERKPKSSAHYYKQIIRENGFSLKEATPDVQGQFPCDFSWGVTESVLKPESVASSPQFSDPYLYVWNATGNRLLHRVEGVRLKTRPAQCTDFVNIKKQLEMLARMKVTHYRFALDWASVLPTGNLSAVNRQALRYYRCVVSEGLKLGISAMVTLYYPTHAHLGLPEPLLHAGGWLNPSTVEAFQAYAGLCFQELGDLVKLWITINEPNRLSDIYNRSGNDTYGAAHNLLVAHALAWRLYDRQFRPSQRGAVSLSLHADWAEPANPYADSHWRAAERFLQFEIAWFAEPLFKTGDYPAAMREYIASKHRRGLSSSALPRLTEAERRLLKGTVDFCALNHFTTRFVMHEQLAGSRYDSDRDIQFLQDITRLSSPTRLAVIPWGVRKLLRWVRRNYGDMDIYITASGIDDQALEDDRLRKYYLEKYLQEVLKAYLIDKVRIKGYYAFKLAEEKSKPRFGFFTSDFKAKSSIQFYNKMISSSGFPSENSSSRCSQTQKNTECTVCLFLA
Protocol: as §1

[2] = target: T3, human KLB expressed on cells (human, UniProt Q86Z14 53-1044); assay: FACS on 293 cells expressing hKLB, antibody at 0.8 µg/ml, median shift
T3 construct: on transfected 293 / HEK293 cells; also called hKLB; beta-Klotho

binding result (mouse KLB): no binding
binding result [1]: binds
binding result [2]: binds
B1: 11D4 (antibody, V domains shown)
VH: QVQVKESGPGLVAPSQSLSITCTVSGFSLTNYGVSWIRQPPGKGLEWLGVIWGDGSINYHSALISRLTITKDNSKSQVFLKLNSLEADDTATYYCAKTHDWFDYWGQGTLVTVSA
VL: DIQMTQTPSSLSASLGDRVTINCRASQDISNYFNWYQQKPNGTIKLLIYYTSRLQSGVPSRFSGSGSGTDYSLTISNLEQEDKATYFCHQVRTLPWTFGGGTKLEIK
notes: murine hybridoma-derived anti-KLB antibody; also called KLBmAb5

binding result (mouse KLB): no binding
binding result [1]: binds
binding result [2]: binds
B2: 6C1 (antibody, V domains shown)
VH: QVQLQQSGDELMKPGASVKISCKVTGNTFSSYWIEWVKQRPGHGLEWIGEILPGSDSTKYVEKFKVKATFTADTSSNTAYMQLSSLTSEDSAVYYCARGGYHYPGWLVYWGQGTLVTVSA
VL: DIVMTQSQKFMSTSVGDRVSVTCKASQNVDSYVAWYQQKAGQSPKPLIYSASYRFSGVPDRFTGSGSGTEFTLTISNVQSEDLAEYFCQQYNISPYTFGGGTKLEIK
notes: murine hybridoma-derived anti-KLB antibody; also called KLBmAb4

binding result (mouse KLB): no binding
binding result [1]: binds
binding result [2]: binds
B3: 14C10 (antibody, V domains shown)
VH: QVTLKESGPGILQPSQTLSLTCSFSGFSLSTSAMGIGWIRQPSGKGLEWLAHIWWDDDKRYNPALKSRLTISKDTSRNQVFLKIASVDTADTATYFCARIDGIYDGSFYAMDYWGQGTSVTVSS
VL: DIVLTQSPASLAVSLGQRATISCRASESVDSYGNSFMHWYQQKPGQPPKLLIYRASNLESGIPARFSGSGSRTDFTLTINPVEADDVANYYCQQSNEDYTFGGGTKLEIK
notes: murine hybridoma-derived anti-KLB antibody; also called KLBmAb3
